These results are taken from patent publication US20130281374A1.

For this assay, the target named is T1, human GIP receptor (human), P48546.
T1 chain: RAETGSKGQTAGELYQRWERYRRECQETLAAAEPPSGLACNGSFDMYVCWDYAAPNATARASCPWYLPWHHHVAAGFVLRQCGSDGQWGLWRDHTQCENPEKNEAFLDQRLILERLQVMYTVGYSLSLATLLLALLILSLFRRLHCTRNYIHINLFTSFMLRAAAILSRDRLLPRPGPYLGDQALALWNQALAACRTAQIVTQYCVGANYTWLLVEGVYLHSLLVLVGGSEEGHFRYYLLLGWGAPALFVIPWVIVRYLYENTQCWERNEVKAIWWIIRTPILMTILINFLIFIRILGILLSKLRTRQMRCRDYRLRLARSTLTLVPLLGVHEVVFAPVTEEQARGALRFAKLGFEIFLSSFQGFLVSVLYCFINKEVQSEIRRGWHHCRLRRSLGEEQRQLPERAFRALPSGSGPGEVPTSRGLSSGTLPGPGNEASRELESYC
Kind of assay: 125I-GIP displacement, HEK-GIPR membranes.

B1: 0601GIP4843 (peptide)
peptide: HGEGTLISDYSIAMDKIHQQDFVNWLLAQKPKKIRYS
modifications: not checked
B1 returned a % Inh 10 nM of 3%.
